± gives the uncertainty stated by the source.
B1: Far upstream element-binding protein 2, residues 142 to 214; numbered along this chain, Q92945 (parent)
chain: RTSMTEEYRVPDGMVGLIIGRGGEQINKIQQDSGCKVQISPDSGGLPERSVSLTGAPESVQKAKMMLDDIVSR

Variants of: B1
Test: abundance fitness (aPCA) (normalised: wild type 0, dead -1); higher = more abundant; growth selection in yeast, the domain comes from the species named
Conditions: Homo sapiens
For RTSMTEEYRVPDGMVGLIIGRGGEQINKIQQDSGCKVQISPDSGGLPERSVSLTGAPESVQKAKRMLDDIVSR [M65R], the abundance fitness was -0.023 ± 0.037. With RTSMTEEYRVPDGMVGLIIGRGGEQINKIQQDSGCKVQISPDSGGLPERSVSLTGAPESVQKAKSMLDDIVSR [M65S] the abundance fitness was 0.025 ± 0.044. In the case of RTSMTEEYRVPDGMVGLIIGRGGEQINKIQQDSGCKVQISPDSGGLPERSVSLTGAPESVQKAKVMLDDIVSR [M65V], the abundance fitness is reported as 0.008 ± 0.046. Work on RTSMTEEYRVPDGMVGLIIGRGGEQINKIQQDSGCKVQISPDSGGLPERSVSLTGAPESVQKAKWMLDDIVSR [M65W] yielded an abundance fitness of -0.211 ± 0.05. In the case of RTSMTEEYRVPDGMVGLIIGRGGEQINKIQQDSGCKVQISPDSGGLPERSVSLTGAPESVQKAKMALDDIVSR [M66A], the abundance fitness is reported as -0.185 ± 0.045. RTSMTEEYRVPDGMVGLIIGRGGEQINKIQQDSGCKVQISPDSGGLPERSVSLTGAPESVQKAKMCLDDIVSR [M66C] showed an abundance fitness of -0.427 ± 0.069. For RTSMTEEYRVPDGMVGLIIGRGGEQINKIQQDSGCKVQISPDSGGLPERSVSLTGAPESVQKAKMDLDDIVSR [M66D], the abundance fitness was -0.529 ± 0.072. Variant RTSMTEEYRVPDGMVGLIIGRGGEQINKIQQDSGCKVQISPDSGGLPERSVSLTGAPESVQKAKMELDDIVSR [M66E] has an abundance fitness of -0.514 ± 0.056. Work on RTSMTEEYRVPDGMVGLIIGRGGEQINKIQQDSGCKVQISPDSGGLPERSVSLTGAPESVQKAKMFLDDIVSR [M66F] yielded an abundance fitness of -0.383 ± 0.1. For RTSMTEEYRVPDGMVGLIIGRGGEQINKIQQDSGCKVQISPDSGGLPERSVSLTGAPESVQKAKMGLDDIVSR [M66G], the abundance fitness was -0.652 ± 0.047. RTSMTEEYRVPDGMVGLIIGRGGEQINKIQQDSGCKVQISPDSGGLPERSVSLTGAPESVQKAKMHLDDIVSR [M66H] showed an abundance fitness of -0.523 ± 0.08. For RTSMTEEYRVPDGMVGLIIGRGGEQINKIQQDSGCKVQISPDSGGLPERSVSLTGAPESVQKAKMILDDIVSR [M66I], the abundance fitness was -0.254 ± 0.076. For RTSMTEEYRVPDGMVGLIIGRGGEQINKIQQDSGCKVQISPDSGGLPERSVSLTGAPESVQKAKMKLDDIVSR [M66K], the abundance fitness was -0.462 ± 0.066. In the case of RTSMTEEYRVPDGMVGLIIGRGGEQINKIQQDSGCKVQISPDSGGLPERSVSLTGAPESVQKAKMLLDDIVSR [M66L], the abundance fitness is reported as -0.041 ± 0.046. RTSMTEEYRVPDGMVGLIIGRGGEQINKIQQDSGCKVQISPDSGGLPERSVSLTGAPESVQKAKMNLDDIVSR [M66N] gave an abundance fitness of -0.688 ± 0.13. RTSMTEEYRVPDGMVGLIIGRGGEQINKIQQDSGCKVQISPDSGGLPERSVSLTGAPESVQKAKMPLDDIVSR [M66P] showed an abundance fitness of -0.532 ± 0.054. RTSMTEEYRVPDGMVGLIIGRGGEQINKIQQDSGCKVQISPDSGGLPERSVSLTGAPESVQKAKMQLDDIVSR [M66Q] showed an abundance fitness of -0.301 ± 0.063. For RTSMTEEYRVPDGMVGLIIGRGGEQINKIQQDSGCKVQISPDSGGLPERSVSLTGAPESVQKAKMRLDDIVSR [M66R], the abundance fitness was -0.512 ± 0.042. Variant RTSMTEEYRVPDGMVGLIIGRGGEQINKIQQDSGCKVQISPDSGGLPERSVSLTGAPESVQKAKMSLDDIVSR [M66S] has an abundance fitness of -0.428 ± 0.05. RTSMTEEYRVPDGMVGLIIGRGGEQINKIQQDSGCKVQISPDSGGLPERSVSLTGAPESVQKAKMTLDDIVSR [M66T] showed an abundance fitness of -0.661 ± 0.059. For RTSMTEEYRVPDGMVGLIIGRGGEQINKIQQDSGCKVQISPDSGGLPERSVSLTGAPESVQKAKMVLDDIVSR [M66V], the abundance fitness was -0.456 ± 0.051. For RTSMTEEYRVPDGMVGLIIGRGGEQINKIQQDSGCKVQISPDSGGLPERSVSLTGAPESVQKAKMWLDDIVSR [M66W], the abundance fitness was -0.473 ± 0.054. With RTSMTEEYRVPDGMVGLIIGRGGEQINKIQQDSGCKVQISPDSGGLPERSVSLTGAPESVQKAKMYLDDIVSR [M66Y] the abundance fitness was -0.379 ± 0.086. RTSMTEEYRVPDGMVGLIIGRGGEQINKIQQDSGCKVQISPDSGGLPERSVSLTGAPESVQKAKMMADDIVSR [L67A] showed an abundance fitness of -0.5 ± 0.045. With RTSMTEEYRVPDGMVGLIIGRGGEQINKIQQDSGCKVQISPDSGGLPERSVSLTGAPESVQKAKMMDDDIVSR [L67D] the abundance fitness was -0.462 ± 0.064. In the case of RTSMTEEYRVPDGMVGLIIGRGGEQINKIQQDSGCKVQISPDSGGLPERSVSLTGAPESVQKAKMMFDDIVSR [L67F], the abundance fitness is reported as -0.41 ± 0.072. In the case of RTSMTEEYRVPDGMVGLIIGRGGEQINKIQQDSGCKVQISPDSGGLPERSVSLTGAPESVQKAKMMGDDIVSR [L67G], the abundance fitness is reported as -0.602 ± 0.038. For RTSMTEEYRVPDGMVGLIIGRGGEQINKIQQDSGCKVQISPDSGGLPERSVSLTGAPESVQKAKMMHDDIVSR [L67H], the abundance fitness was -0.564 ± 0.084. For RTSMTEEYRVPDGMVGLIIGRGGEQINKIQQDSGCKVQISPDSGGLPERSVSLTGAPESVQKAKMMIDDIVSR [L67I], the abundance fitness was 0.041 ± 0.069. RTSMTEEYRVPDGMVGLIIGRGGEQINKIQQDSGCKVQISPDSGGLPERSVSLTGAPESVQKAKMMKDDIVSR [L67K] gave an abundance fitness of -0.582 ± 0.056. Variant RTSMTEEYRVPDGMVGLIIGRGGEQINKIQQDSGCKVQISPDSGGLPERSVSLTGAPESVQKAKMMMDDIVSR [L67M] has an abundance fitness of -0.055 ± 0.053. Variant RTSMTEEYRVPDGMVGLIIGRGGEQINKIQQDSGCKVQISPDSGGLPERSVSLTGAPESVQKAKMMNDDIVSR [L67N] has an abundance fitness of -0.601 ± 0.065. Variant RTSMTEEYRVPDGMVGLIIGRGGEQINKIQQDSGCKVQISPDSGGLPERSVSLTGAPESVQKAKMMPDDIVSR [L67P] has an abundance fitness of -0.652 ± 0.064. In the case of RTSMTEEYRVPDGMVGLIIGRGGEQINKIQQDSGCKVQISPDSGGLPERSVSLTGAPESVQKAKMMQDDIVSR [L67Q], the abundance fitness is reported as -0.64 ± 0.064. With RTSMTEEYRVPDGMVGLIIGRGGEQINKIQQDSGCKVQISPDSGGLPERSVSLTGAPESVQKAKMMRDDIVSR [L67R] the abundance fitness was -0.778 ± 0.042. In the case of RTSMTEEYRVPDGMVGLIIGRGGEQINKIQQDSGCKVQISPDSGGLPERSVSLTGAPESVQKAKMMSDDIVSR [L67S], the abundance fitness is reported as -0.553 ± 0.048. Variant RTSMTEEYRVPDGMVGLIIGRGGEQINKIQQDSGCKVQISPDSGGLPERSVSLTGAPESVQKAKMMTDDIVSR [L67T] has an abundance fitness of -0.562 ± 0.059.

From the Human Domainome abundance scans (Beltran et al. 2025)
